Reference: patent publication US20210340268A1 (GENERAL HOSPITAL, published 2021)

Columns and labels:
[1] = molecular target: T1, epitope containing residues 56-60 of SEQ ID NO: 7 within human TNFR2 (KCSPG) (human); assay: epitope mapping analysis (peptide ELISA)
T1 construct: Motif within CRD1 of TNFR2
T1 peptide: KCSPG

[2] = molecular target: T2, recombinant human TNFR2 (human tumor necrosis factor receptor 2) (human, UniProt P20333 23-257); assay: SPR (Biacore 3000), biotinylated antibody captured on streptavidin, recombinant human TNFR2 in solution
T2 sequence: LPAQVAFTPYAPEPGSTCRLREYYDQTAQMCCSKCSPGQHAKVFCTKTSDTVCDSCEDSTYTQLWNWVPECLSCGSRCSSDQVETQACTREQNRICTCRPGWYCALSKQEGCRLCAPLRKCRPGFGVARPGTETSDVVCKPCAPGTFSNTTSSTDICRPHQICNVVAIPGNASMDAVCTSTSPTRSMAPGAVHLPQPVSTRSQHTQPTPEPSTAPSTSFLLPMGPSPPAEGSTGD
Method: The affinities of antagonistic TNFR2 antibodies for recombinant human TNFR2 were measured using BIACORE™ Analysis Services (Precision Antibody). Briefly, the antibody was biotinylated at a 5:1 stoichiometric ratio using biotinyl-LC-LC-[…] (Thermo-Fisher) in PBS. Excess biotinylation reagent was removed by centrifugation chromatography and the biotinylated antibody was captured on 3000 RU of streptavidin surface to a level of 100 RU. […] Analysis of the kinetics of antigen binding was performed at a flow of 60 μL/min with 2 min injections. Antibodies were injected at a concentration of 1 mg/ml to the final capture of 100 RU. The instrument used was BIACORE™ 3000 with the BioCap chip (GE Healthcare). Double reference method was used for analysis. Reference channel contained the identical level of streptavidin.

binding result [1]: no binding
B1: TNFRAB1 (antibody, V domains shown)
VH: EVQLQESGGGLVKPGGSLKLSCAASGFTFSSYVMSWVRQTPEKRLEWVATISSGGSYTYYPDSVKGRFTISRDNAKNTLYLQMSSLRSEDTAMYYCARQRVDGYSSYWYFDVWGAGTAVTVSS
VL: DIVLTQSPAIMSASPGEKVTITCSASSSVYYMYWFQQKPGTSPKLWIYSTSNLASGVPVRFSGSGSGTSYSLTISRMEAEDAATYYCQQRRNYPYTFGGGTKLEIKR
notes: Murine monoclonal antibody with two heavy and two light chains; also called antagonistic TNFR2 antibody TNFRAB1
Kd [2]: ~0.0444 nM | koff [2]: 0.000221 s⁻¹ | kon [2]: 4.98e+06 M⁻¹ s⁻¹
